Like-named read-outs stand apart in the source and are kept apart here.
T1: Csy complex (type I-F surveillance complex) (UniProt Q02ML9;Q02MM0;Q02MM1;Q02MM2 1-434;1-327;1-342;1-187)
T1 sequence 1: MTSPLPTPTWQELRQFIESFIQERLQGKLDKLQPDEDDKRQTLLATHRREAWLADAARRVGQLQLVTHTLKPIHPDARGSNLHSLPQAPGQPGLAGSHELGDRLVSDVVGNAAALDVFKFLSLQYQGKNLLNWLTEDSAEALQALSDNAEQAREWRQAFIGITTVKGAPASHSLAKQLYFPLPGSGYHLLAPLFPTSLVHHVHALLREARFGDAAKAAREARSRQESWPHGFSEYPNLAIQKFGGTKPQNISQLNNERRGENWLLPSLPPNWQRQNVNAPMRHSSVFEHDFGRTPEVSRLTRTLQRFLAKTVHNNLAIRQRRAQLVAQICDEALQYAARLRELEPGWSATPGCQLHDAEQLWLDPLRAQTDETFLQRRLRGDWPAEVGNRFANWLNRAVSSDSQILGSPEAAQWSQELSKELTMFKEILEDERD
T1 sequence 2: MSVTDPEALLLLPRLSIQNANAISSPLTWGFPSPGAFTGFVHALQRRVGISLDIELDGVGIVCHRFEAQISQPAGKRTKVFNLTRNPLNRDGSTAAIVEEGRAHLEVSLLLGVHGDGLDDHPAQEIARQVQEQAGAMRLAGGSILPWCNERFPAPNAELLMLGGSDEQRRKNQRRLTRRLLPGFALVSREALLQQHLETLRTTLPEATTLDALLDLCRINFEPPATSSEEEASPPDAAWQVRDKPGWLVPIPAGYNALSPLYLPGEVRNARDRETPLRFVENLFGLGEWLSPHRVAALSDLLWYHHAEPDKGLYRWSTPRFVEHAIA
T1 sequence 3: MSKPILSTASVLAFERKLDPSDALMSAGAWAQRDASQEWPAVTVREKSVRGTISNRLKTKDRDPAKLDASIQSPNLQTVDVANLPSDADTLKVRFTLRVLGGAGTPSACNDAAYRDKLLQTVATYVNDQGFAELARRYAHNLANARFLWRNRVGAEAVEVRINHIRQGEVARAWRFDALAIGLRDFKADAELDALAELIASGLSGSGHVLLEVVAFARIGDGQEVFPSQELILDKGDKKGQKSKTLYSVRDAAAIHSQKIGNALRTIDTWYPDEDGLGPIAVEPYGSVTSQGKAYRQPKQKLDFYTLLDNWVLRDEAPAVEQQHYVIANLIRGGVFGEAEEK
T1 sequence 4: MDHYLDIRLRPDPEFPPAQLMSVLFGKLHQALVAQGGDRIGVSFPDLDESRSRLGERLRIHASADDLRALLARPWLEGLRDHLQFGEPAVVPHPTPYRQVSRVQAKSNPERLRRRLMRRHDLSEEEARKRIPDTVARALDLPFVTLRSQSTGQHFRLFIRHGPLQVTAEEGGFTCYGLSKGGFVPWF

B1: 54-bp target dsDNA, 5'-FAM TS (dsDNA)
DNA 1: GGAAGCCATCCAGGTAGACGCGGACATCAAGCCCGCCGTGAAGGTGCAGCTGCT
DNA 2: AGCAGCTGCACCTTCACGGCGGGCTTGATGTCCGCGTCTACCTGGATGGCTTCC
B2: 54-bp dsDNA bubble, 5'-FAM TS (dsDNA)
DNA 1: B1 DNA 1
DNA 2: AGCAGCTGCACCAAGTGCCGCCGCTTGATGTCCGCGTCTACCTGGATGGCTTCC

What was measured:
Test in all cases: EMSA
[1] = target: T2, Csy complex (type I-F surveillance complex);Cas2/3 (;, UniProt Q02ML9;Q02MM0;Q02MM1;Q02MM2;Q02ML8 1-434;1-327;1-342;1-187;1-1076, |)
[2] = target: T1, Csy complex (type I-F surveillance …)
[3] = target: Csy M (Cas8f R299G/R302A);Cas2/3 (;, UniProt Q02ML9;Q02MM0;Q02MM1;Q02MM2;Q02ML8 1-434;1-327;1-342;1-187;1-1076, R299G;R302A|)
[4] = target: T2, Csy complex (type I-F surveillance …); remark: listed apart in the source

Binder	binding result [1]	Kd [2] [nM]	binding result [3]	binding result [4]
B1	binds	9.46 ± 0.82	–	–
B2	–	8.15 ± 0.62	binds	binds

Source: paper PMC9637919
